According to article PMC7022617:

What was measured:
[1] = test system: hemagglutinin H3 on virus particles (Influenza A virus A/England/42/1972 (H3N2)); experiment: ELAA
[2] = test system: hemagglutinin H5 on virus particles (Influenza A virus A/chicken/Kurgan/3654at/2005 (H5N1)); experiment: ELAA
[3] = test system: hemagglutinin H7 on virus particles (Influenza A virus A/mallard/Sweden/91/2002 (H7N9)); experiment: ELAA
[4] = test system: hemagglutinin H9 on virus particles (Influenza A virus A/duck/Primorie/3628/2002 (H9N2)); experiment: ELAA
[5] = test system: hemagglutinin HA1 subunit H1 (recombinant, Abcam ab69741) (Influenza A virus H1 (strain not given)); experiment: SPR
[6] = test system: hemagglutinin HA1 subunit H3 (recombinant, Abcam ab69749) (Influenza A virus H3 (strain not given)); experiment: SPR
[7] = test system: hemagglutinin HA1 subunit H9 (recombinant, Abcam ab67740) (Influenza A virus H9 (strain not given)); experiment: SPR

Sequence | Kd [1] [nM] | Kd [2] [nM] | Kd [3] [nM] | Kd [4] [nM] | Kd [5] [nM] | Kd [6] [nM] | Kd [7] [nM]
TTGGGGTAAGAAGGGAGGGCGGGGGTT [5'-biotin G7-TAAGAA] | 17 | 9 | 13 | 7 |  |  | 
TTGGGGTAAGAAGGGAGGGCGGGGGTT [G7-TAAGAA] |  |  |  |  | 60 | 60 | 60
TTGGGGTTAGGGAGGGCGGGGGTT [5'-biotin G7-TTA] | 7 | 13 | 6 | 10 |  |  | 
TTGGGGTTAGGGAGGGCGGGGGTT [G7-TTA] |  |  |  |  | 30 | 16 | 28
TTGGGGTTATTAAGGGAGGGCGGGGGTT [5'-biotin G7-TTATTAA] | 8 | 5 | 13 | 8 |  |  | 
TTGGGGTTATTAAGGGAGGGCGGGGGTT [G7-TTATTAA] |  |  |  |  | 90 | 50 | 28
TTGGGGTTATTTTGGGAGGGCGGGGGTT [5'-biotin RHA0385] | 2 | 4 | 8 | 5 |  |  | 
TTGGGGTTATTTTGGGAGGGCGGGGGTT [RHA0385] |  |  |  |  | 7 | 12 | 14
